Entries after “also recorded” stand apart in the source; their conditions may differ.
Key:
[1] = system: MDA-MB-231 human mammary carcinoma cells; assay: Rescue of proliferation in siRNA-treated cells by mouse Sdc1 constructs; type: cell-based; details: MDA-MB-231, endogenous human Sdc1 silenced, mouse construct expressed
Protocol: Full length mouse Sdc1 (FLmS1),GPI linked mS1ED (GPImS1ED) or a construct of mouse Sdc1 in which the heparan sulfate attachment sites are mutated (TDM) were stably transfected into MDA-MB-231 cells and selected with 1.5 mg/ml G418 (Gibco BRL). These stable transfectants were maintained in culture in the presence of G418 and were checked periodically for constant expression of FLmS 1, GPImS1ED or TDM. Cells expressing these transgenes at similar levels were sorted by FACS before the experiments. Cells transfected with the empty pcDNA3 vector (NEO) were used as control.
Silencing of human Sdc1 with specific short interfering RNA (siRNA). Purified, duplexed siRNAs specific for human Sdc1 were purchased from Ambion (Austin, Tex.). The siRNA sequences targeting human Sdc1 were: hsdc1-1, […]; hsdc1-2, […]; hsdc1-3, […]. […]
Assessment of Cell Growth. To quantify cell proliferation, cells grown in matrigel (3D culture) or on top of matrigel (2D culture) were released from the matrigel by 45-60 min incubation at 37° C. with Dispase (BD Biosciences), washed with Dulbecco's modified Eagle's medium (DMEM) 2-3 times and resuspended into 400 ul fresh DMEM for cell counting by hemocytometer. Triplicate wells, replicated in at least three experiments, were used for the quantification.

[2] = system: MDA-MB-231 cell spreading; details: soluble ectodomain, dose-dependent; cited from earlier work
[3] = system: S115 mouse mammary tumor cells; details: nanomolar concentrations; Mali et al. (1994); cited from earlier work
MDA-MB-231 cell = details: soluble ectodomain, dose-dependent; cited from earlier work
[4] = biological target: T1, Sdc1 and the αvβ5 integrin complex (Mus musculus, UniProt O70309+P43406); details: B82L cells, competing concentration; McQuade et al., 2006; cited from earlier work
T1 construct: immunoprecipitation of Sdc1 from the B82L cells co-precipitates the integrin with the Sdc1; endogenous in cells; host or cells: B82L mouse fibroblasts
T1 sequence (P43406 31-1044): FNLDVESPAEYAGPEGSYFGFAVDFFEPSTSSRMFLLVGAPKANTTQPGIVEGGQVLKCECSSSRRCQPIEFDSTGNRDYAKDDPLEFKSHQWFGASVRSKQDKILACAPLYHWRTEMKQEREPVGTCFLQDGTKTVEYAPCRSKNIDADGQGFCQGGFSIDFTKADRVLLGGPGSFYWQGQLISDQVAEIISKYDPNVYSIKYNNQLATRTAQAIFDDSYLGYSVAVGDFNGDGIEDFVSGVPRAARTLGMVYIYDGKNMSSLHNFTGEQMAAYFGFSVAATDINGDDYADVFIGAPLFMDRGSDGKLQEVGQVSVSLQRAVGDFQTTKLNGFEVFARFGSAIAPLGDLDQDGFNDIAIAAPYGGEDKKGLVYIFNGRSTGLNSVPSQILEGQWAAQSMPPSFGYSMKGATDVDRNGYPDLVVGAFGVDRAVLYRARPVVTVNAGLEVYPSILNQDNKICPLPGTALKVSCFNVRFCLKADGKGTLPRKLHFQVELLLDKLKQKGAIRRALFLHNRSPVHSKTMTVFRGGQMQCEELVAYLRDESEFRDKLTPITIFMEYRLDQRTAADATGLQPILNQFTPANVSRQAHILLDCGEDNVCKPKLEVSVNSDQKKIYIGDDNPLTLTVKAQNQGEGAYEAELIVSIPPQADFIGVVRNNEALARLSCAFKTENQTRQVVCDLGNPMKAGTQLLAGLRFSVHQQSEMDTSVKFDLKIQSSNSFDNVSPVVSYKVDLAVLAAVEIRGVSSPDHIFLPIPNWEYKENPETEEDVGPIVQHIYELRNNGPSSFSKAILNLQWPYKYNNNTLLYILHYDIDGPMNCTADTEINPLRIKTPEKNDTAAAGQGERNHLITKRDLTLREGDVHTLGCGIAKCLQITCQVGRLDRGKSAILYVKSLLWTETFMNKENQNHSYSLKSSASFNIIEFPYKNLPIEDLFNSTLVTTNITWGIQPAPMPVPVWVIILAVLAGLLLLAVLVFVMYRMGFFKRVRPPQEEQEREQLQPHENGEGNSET
T1 sequence (O70309 24-798): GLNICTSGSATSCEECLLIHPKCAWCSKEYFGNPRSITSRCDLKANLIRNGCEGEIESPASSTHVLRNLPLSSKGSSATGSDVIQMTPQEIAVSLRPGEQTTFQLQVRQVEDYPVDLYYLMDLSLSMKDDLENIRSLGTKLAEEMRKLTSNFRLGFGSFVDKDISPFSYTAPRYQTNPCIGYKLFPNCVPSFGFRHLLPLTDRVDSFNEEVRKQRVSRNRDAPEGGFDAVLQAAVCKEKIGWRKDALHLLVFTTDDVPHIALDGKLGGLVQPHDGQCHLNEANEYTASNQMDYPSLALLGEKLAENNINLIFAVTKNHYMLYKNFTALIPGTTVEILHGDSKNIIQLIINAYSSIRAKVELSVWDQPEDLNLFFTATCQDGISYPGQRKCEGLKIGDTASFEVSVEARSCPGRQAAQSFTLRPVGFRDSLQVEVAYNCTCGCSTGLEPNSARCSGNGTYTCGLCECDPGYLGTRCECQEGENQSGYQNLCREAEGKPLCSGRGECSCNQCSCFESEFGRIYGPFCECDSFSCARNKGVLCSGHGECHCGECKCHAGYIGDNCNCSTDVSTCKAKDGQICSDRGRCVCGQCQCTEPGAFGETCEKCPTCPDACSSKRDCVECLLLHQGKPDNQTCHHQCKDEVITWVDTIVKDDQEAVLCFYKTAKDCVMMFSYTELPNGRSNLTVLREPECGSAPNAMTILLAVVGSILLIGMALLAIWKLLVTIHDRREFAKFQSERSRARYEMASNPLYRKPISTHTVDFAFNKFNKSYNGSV

αvβ5 integrin = biological target: T2, αvβ5 integrin (Mus musculus, UniProt O70309+P43406); details: B82L mouse fibroblasts, competing concentrations; McQuade et al., 2006; cited from earlier work
T2 construct: B82L mouse fibroblasts expressing this integrin; endogenous in cells; host or cells: B82L mouse fibroblasts
T2 sequence (P43406 31-1044): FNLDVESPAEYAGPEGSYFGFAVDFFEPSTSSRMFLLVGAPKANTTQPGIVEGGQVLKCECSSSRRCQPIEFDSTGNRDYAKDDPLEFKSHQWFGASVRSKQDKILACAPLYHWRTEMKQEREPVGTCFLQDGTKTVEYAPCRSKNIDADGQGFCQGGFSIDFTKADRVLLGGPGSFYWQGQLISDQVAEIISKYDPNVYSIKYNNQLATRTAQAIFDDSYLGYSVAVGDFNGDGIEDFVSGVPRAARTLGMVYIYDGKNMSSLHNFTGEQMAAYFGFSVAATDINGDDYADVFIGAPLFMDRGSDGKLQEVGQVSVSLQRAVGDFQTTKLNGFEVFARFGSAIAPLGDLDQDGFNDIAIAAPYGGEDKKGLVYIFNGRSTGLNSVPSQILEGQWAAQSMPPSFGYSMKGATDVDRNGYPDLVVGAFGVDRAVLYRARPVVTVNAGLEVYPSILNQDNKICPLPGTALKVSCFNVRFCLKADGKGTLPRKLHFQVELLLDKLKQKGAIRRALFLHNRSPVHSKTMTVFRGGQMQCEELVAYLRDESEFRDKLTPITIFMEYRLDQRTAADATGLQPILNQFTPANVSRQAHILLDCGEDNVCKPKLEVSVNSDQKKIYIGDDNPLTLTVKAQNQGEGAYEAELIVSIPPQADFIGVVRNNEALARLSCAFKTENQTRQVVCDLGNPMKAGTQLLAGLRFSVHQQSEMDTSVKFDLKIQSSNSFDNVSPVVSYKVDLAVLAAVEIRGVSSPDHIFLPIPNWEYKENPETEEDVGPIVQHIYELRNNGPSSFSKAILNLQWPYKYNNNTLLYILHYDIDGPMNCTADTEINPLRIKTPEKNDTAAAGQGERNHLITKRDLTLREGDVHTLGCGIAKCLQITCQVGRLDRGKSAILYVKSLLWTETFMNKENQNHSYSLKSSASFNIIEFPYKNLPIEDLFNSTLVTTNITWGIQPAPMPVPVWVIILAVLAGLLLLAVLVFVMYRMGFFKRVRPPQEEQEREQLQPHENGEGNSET
T2 sequence (O70309 24-798): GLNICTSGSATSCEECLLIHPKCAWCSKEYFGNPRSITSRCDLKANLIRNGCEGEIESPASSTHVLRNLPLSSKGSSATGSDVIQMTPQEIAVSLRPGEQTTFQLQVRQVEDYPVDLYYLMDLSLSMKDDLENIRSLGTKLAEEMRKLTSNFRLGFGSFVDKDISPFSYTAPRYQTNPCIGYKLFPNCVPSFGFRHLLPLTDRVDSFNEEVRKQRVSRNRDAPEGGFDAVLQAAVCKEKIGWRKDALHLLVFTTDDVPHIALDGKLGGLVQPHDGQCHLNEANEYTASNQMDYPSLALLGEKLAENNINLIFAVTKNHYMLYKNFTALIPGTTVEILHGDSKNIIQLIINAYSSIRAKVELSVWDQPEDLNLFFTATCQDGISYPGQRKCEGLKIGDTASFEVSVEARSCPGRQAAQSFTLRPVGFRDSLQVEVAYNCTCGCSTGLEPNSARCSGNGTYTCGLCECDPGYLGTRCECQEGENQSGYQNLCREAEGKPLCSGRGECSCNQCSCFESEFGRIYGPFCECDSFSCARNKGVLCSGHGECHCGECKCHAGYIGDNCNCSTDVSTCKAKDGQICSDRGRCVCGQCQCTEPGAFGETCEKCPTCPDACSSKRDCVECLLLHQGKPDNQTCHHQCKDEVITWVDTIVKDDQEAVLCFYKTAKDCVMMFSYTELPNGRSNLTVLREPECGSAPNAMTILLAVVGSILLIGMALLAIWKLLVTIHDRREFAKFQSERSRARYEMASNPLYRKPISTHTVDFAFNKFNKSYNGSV

B1: mouse Sdc1: Full length mouse Sdc1 stably transfected into MDA-MB-231 cells (protein, UniProt P18828 1-311, looked up)
chain: MRRAALWLWLCALALRLQPALPQIVAVNVPPEDQDGSGDDSDNFSGSGTGALPDTLSRQTPSTWKDVWLLTATPTAPEPTSSNTETAFTSVLPAGEKPEEGEPVLHVEAEPGFTARDKEKEVTTRPRETVQLPITQRASTVRVTTAQAAVTSHPHGGMQPGLHETSAPTAPGQPDHQPPRVEGGGTSVIKEVVEDGTANQLPAGEGSGEQDFTFETSGENTAVAAVEPGLRNQPPVDEGATGASQSLLDRKEVLGGVIAGGLVGLIFAVCLVAFMLYRMKKKDEGSYSLEEPKQANGGAYQKPTKQEEFYA
modifications: full-length
notes: Full length mouse Sdc1 stably transfected into MDA-MB-231 cells
**Q.** For B1, which “rescue of proliferation in siRNA-treated cells” value [1] is on record?
**A.** Rescue of proliferation; also recorded: rescues proliferation

B2: soluble syndecan-4 ectodomain: soluble syndecan-4 ectodomain, specificity control (protein, UniProt P31431 19-145, looked up)
extracellular domain: ESIRETEVIDPQDLLEGRYFSGALPDDEDVVGPGQESDDFELSGSGDLDDLEDSMIGPEVVHPLVPLDNHIPERAGSGSQVPTEPKKLEENEVIPKRISPVEESEDVSNKVSMSSTVQGSNIFERTE
modifications: extracellular domain
notes: soluble syndecan-4 ectodomain, specificity control
**Q.** With B2 as the molecule, how does the “inhibition of MDA-MB-231 cell spreading” value [2] read?
**A.** fails to compete

B3: free ectodomain: free ectodomain from culture medium of syndecan 1-transfected S115 or normal murine mammary gland cells, bearing heparan sulfate (Mali et al., 1994) (protein, UniProt P18828 23-255, looked up)
extracellular domain: QIVAVNVPPEDQDGSGDDSDNFSGSGTGALPDTLSRQTPSTWKDVWLLTATPTAPEPTSSNTETAFTSVLPAGEKPEEGEPVLHVEAEPGFTARDKEKEVTTRPRETVQLPITQRASTVRVTTAQAAVTSHPHGGMQPGLHETSAPTAPGQPDHQPPRVEGGGTSVIKEVVEDGTANQLPAGEGSGEQDFTFETSGENTAVAAVEPGLRNQPPVDEGATGASQSLLDRKEVLG
modifications: extracellular domain heparan sulfate
**Q.** With B3 as the molecule, how does the “growth of S115 tumor cells” value [3] read?
**A.** suppress the growth

B4: Soluble murine Sdc1 ectodomain: soluble murine Sdc1 ectodomain (Beauvais and Rapraeger, 2003) (protein, UniProt P18828 23-255, looked up)
extracellular domain: QIVAVNVPPEDQDGSGDDSDNFSGSGTGALPDTLSRQTPSTWKDVWLLTATPTAPEPTSSNTETAFTSVLPAGEKPEEGEPVLHVEAEPGFTARDKEKEVTTRPRETVQLPITQRASTVRVTTAQAAVTSHPHGGMQPGLHETSAPTAPGQPDHQPPRVEGGGTSVIKEVVEDGTANQLPAGEGSGEQDFTFETSGENTAVAAVEPGLRNQPPVDEGATGASQSLLDRKEVLG
modifications: extracellular domain
**Q.** For B4, which “inhibition in short-term migration assays” value (MDA-MB-231 cell) is on record?
**A.** competitively inhibits

**Q.** And the “inhibition of MDA-MB-231 cell spreading” value [2]?
**A.** competitively inhibits

B5: recombinant Sdc1 ectodomain: recombinant Sdc1 ectodomain added at competing concentrations (McQuade et al., 2006) (protein, UniProt P18828 23-255, looked up)
extracellular domain: QIVAVNVPPEDQDGSGDDSDNFSGSGTGALPDTLSRQTPSTWKDVWLLTATPTAPEPTSSNTETAFTSVLPAGEKPEEGEPVLHVEAEPGFTARDKEKEVTTRPRETVQLPITQRASTVRVTTAQAAVTSHPHGGMQPGLHETSAPTAPGQPDHQPPRVEGGGTSVIKEVVEDGTANQLPAGEGSGEQDFTFETSGENTAVAAVEPGLRNQPPVDEGATGASQSLLDRKEVLG
modifications: extracellular domain
**Q.** Which “co-precipitation of the integrin with Sdc1” value [4] does the source give for B5 here?
**A.** disrupted

**Q.** And the αvβ5 integrin activity (αvβ5 integrin)?
**A.** inactivated

Reference: patent US20070054332A1, “Syndecan 1 ectodomain inhibits cancer” (priority 2005, published 2007)
